Experimental findings from PMC4030946, “Enantiocomplementary Yarrowia lipolytica Oxidoreductases: Alcohol Dehydrogenase 2 and Short Chain Dehydrogenase/Reductase” (Biomolecules, 2013) are described below.

The target of one series is T1, YlSDR (Yarrowia lipolytica, UniProt Q6CEE9).
T1 construct: gene YALI0B16192g; full length, N-terminal His-tag (vector pK470), E. coli BL21 (DE3) Gold, purified
T1 sequence (Q6CEE9 1-278): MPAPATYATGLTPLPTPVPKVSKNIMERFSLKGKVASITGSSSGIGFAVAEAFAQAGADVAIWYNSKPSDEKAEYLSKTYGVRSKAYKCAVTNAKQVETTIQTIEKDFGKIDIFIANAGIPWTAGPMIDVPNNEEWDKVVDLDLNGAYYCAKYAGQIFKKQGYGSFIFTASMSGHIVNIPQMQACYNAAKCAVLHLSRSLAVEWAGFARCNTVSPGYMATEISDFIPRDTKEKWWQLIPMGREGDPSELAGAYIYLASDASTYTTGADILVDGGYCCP
Put plainly: chiral GC of product after acetylation. It is filed as biochemical. The conditions noted are these: reduction to (R)-2-octanol; NADPH 11 mM; citrate 50 mM, pH 5.0, 28 °C; Tween 20.

Substrate in series [1]: NC(=O)c1ccc[n+]([C@@H]2O[C@H](COP(=O)(O)OP(=O)(O)OC[C@H]3O[C@@H](n4cnc5c(N)ncnc54)[C@H](O)[C@@H]3O)[C@@H](O)[C@H]2O)c1
Put plainly: purified protein. It is filed as biochemical, Yarrowia lipolytica. The conditions noted are these: oxidation of 10 mM (S)-2-octanol, potassium phosphate 50 mM, 40 mM KCl, pH 8.5, 28 °C, varied: cofactor.

Substrate in series [2]: CCCCCCC(C)=O
Put plainly: purified protein. It is filed as biochemical, Yarrowia lipolytica. Conditions: reduction, NADH co-substrate, potassium phosphate 50 mM, 40 mM KCl, pH 7.0, 28 °C, Tween 20.

Substrate in series [3]: CCCCCC[C@H](C)O
The series can be described thus: purified protein. It is filed as biochemical, Yarrowia lipolytica. The conditions noted are these: oxidation, NAD+ co-substrate, potassium phosphate 50 mM, 40 mM KCl, pH 8.5, 28 °C, Tween 20.

For `CCCCCCC(C)=O` [2-octanone], at YlSDR, the “chiral GC of product after acetylation” value is given as “(R)-2-octanol was prepared under the following conditions: purified YlSDR in citrate buffer”.

B1: YlADH2 (Yarrowia lipolytica CLIB122) (protein)
chain: MSAPVIPKTQKGVIFETSGGPLMYKDIPVPVPADDEILVNVKFSGVCHTDLHAWKGDWPLDTKLPLVGGHEGAGVVVAKGKNVDTFEIGDYAGIKWINKACYTCEFCQVAAEPNCPNATMSGYTHDGSFQQYATANAVQAAHIPKNCDLAEIAPILCAGITVYKALKTAAILAGQWVAVTGAGGGLGTLAVQYAKAMGYRVLAIDTGADKEKMCKDLGAEVFIDFAKTKDLVKDVQEATKGGPHAVINVSVSEFAVNQSIEYVRTLGTVVLVGLPAGAVCKSPIFQQVARSIQIKGSYVGNRADSQEAIEFFSRGLVKSPIIIIGLSELEKVYKLMEEGKIAGRYVLDTSK
As a reminder, the Km is the substrate concentration at which the rate is half of its maximum. As a reminder, the kcat is the maximal rate divided by the concentration of active sites. For orientation: kcat/Km means the turnover number divided by the Michaelis constant. As for B1, the Km is reported as 17.8 ± 1.26 mM in the series “purified protein [1]”, 5.38 ± 0.76 mM in the series “purified protein [2]” and 1.42 ± 0.03 mM in the series “purified protein [3]”. Besides, the kcat in “purified protein [1]” was 3.43 ± 0.05 s⁻¹; in “purified protein [2]”, 0.56 ± 0.04 s⁻¹; in “purified protein [3]”, 1.05 ± 0.52 s⁻¹. The results for the kcat/Km in the series “purified protein [1]”, in the series “purified protein [2]” and in the series “purified protein [3]” were 190 ± 70 M⁻¹ s⁻¹, 100 ± 160 M⁻¹ s⁻¹ and 740 ± 500 M⁻¹ s⁻¹, respectively.
